Usually koff stands for the first-order rate constant of dissociation. As a reminder, the kon is a measure of how fast the partners come together.

Assay [1] concerns the target T1, his-tagged recombinant extra cellular domain of the Nectin-4 protein (R&D systems/Biotechne) (Homo sapiens (Human), UniProt Q96NY8 32-349).
T1 construct: Bought protein; also called His-Nectin-4; recombinant his-tagged Nectin-4 EC; not shown: His tag
T1 sequence: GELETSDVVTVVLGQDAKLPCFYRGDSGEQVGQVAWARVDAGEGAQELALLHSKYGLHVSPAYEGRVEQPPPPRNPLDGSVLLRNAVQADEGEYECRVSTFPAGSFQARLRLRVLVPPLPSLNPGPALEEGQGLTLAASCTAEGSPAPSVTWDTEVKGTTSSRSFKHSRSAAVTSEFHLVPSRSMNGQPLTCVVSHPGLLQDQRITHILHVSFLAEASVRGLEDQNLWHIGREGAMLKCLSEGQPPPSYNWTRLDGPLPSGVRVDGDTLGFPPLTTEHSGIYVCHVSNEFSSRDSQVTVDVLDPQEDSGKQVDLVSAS
As to the kind of experiment: BLI (Octet Red96), antibody on AHC sensor, His-Nectin-4 ECD as analyte, 1:1 model. For orientation: Biolayer interferometry detects binding as a change in optical thickness at a sensor tip.

Assay [2] concerns the target T1, his-tagged recombinant extra cellular …. As to the kind of experiment: BLI (Octet Red96), His-Nectin-4 ECD as analyte.
Assay [3] deals with T2, homodimer recombinant Fc protein, IgV domain of human Nectin-4 fused to human Fc domain (human, UniProt Q96NY8 32-146, limits assumed).
T2 construct: also called Fc-Nectin-4; Fc fusion IgV Nectin-4 domain; not shown: human Fc domain
T2 sequence: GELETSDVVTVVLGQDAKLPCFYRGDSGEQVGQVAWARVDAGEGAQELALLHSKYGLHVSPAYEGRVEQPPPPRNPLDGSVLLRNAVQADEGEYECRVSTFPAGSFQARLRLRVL
As to the kind of experiment: BLI (Octet Red96), antibody on FAB2G sensor, IgV-Fc homodimer as analyte, 1:2 bivalent analyte model.

B1: Ch-5A12.2 (parental chimeric 5A12.2 monoclonal anti-Nectin-4 antibody) (antibody, V domains shown)
VH: QIQLQQSGAELVKPGASVTLSCKTSGFTFNSMYISWLKQKPGQSLEWIAWIYAGTGGTRFNQKFTGKVQLTVDTSSSTAYMQFSSLTTDDSAIYYCAIRSGFVPMDYWGQGTSVTVSS
VL: SIVMTQTPKFLLVSAGDRVTITCKASQSVSNDVAWYQQKPGQSPKLLIYYASNRYTGVPDRFTGSGYGTDFTFTISTVQAEDLAVYFCQQDYSSPWTFGGGTKLEIK
Turning to B1, in assay [1], the Kd stood at 4.2 nM. In addition, in assay [2], the Kd came out at 3.4 nM, the koff was 0.000928 s⁻¹ and the kon is 275000 M⁻¹ s⁻¹. In assay [3], the Kd came to 5.3 nM.

B2: HA22 (Enfortumab), human monoclonal anti-Nectin-4 antibody (antibody, V domains shown)
VH: EVQLVESGGGLVQPGGSLRLSCAASGFTFSSYNMNWVRQAPGKGLEWVSYISSSSSTIYYADSVKGRFTISRDNAKNSLSLQMNSLRDEDTAVYYCARAYYYGMDVWGQGTTVTVSS
VL: DIQMTQSPSSVSASVGDRVTITCRASQGISGWLAWYQQKPGKAPKFLIYAASTLQSGVPSRFSGSGSGTDFTLTISSLQPEDFATYYCQQANSFPPTFGGGTKVEIK
Consider B2, for which the Kd in assay [1] turned out to be 5.2 nM; in assay [3] it was 12.9 nM.

Source of the values: patent publication EP4324849A1 (Emergence Therapeutics AG, dated 2024).
